Results as given in US20220041650A1.

Columns and labels:
[1] = biological target: CH505TF4.1 SOSIP Trimer (HV1301189, CH505TF.6R.SOSIP.664.v4.1) (HIV-1); assay: SPR antibody binding; drug substance of the 50 L scale run
[2] = biological target: CH505TF4.1 SOSIP Trimer (HV1301189, CH505TF.6R.SOSIP.664.v4.1) (HIV-1); assay: SPR antibody binding; drug substance of the 200 L scale run 1
[3] = biological target: CH505TF4.1 SOSIP Trimer (HV1301189, CH505TF.6R.SOSIP.664.v4.1) (HIV-1); assay: SPR antibody binding; drug substance of the 200 L scale run 2

| Substance | Kd [1] [nM] | Kd [2] [nM] | Kd [3] [nM] |
| --- | --- | --- | --- |
| PGT145 (antibody) | 11 | 11.3 | 11.7 |
| PGT151 (antibody) | 17.5 | 16 | 13.1 |
